Entries after “also recorded” stand apart in the source; their conditions may differ. Values belong to the molecule of their own block, whether it stands above or below them.
Columns and labels:
HER3 [1] = target: T1, HER3 (Homo sapiens, UniProt P21860); assay: HER3 autophosphorylation in pancreatic cancer cell lines; type: cell-based; set-up: endogenous in cells; host or cells: N87, BT474, ZR75-30, Panc 2.03, A549 and a panel of human cancer cell lines; conditions: single agents
HER2 [2] = target: T2, HER2 (Homo sapiens, UniProt P04626); assay: HER2 autophosphorylation in pancreatic cancer cell lines; type: cell-based; set-up: endogenous in cells; conditions: single agents
HER2 [3] = target: T2, HER2; assay: NRG1-induced phosphorylation of HER2 in pancreatic cancer cell lines; type: cell-based; set-up: endogenous in cells
[4] = tested on: N87 human gastric cancer xenograft; assay: N87 human gastric cancer xenograft model; type: in vivo; conditions: lapatinib alone versus antibodies alone
HER2 [5] = target: T2, HER2; assay: HER2 tyrosine phosphorylation ELISA, antibodies with or without lapatinib; type: cell-based; set-up: endogenous in cells; host or cells: N87 gastric cancer cells; ZR75-30 breast cancer cells; conditions: 24 hours; for tyrosine phosphorylation level of HER2: N87 cells; for tyrosine phosphorylation levels of HER2: ZR75-30 cells
HER3 [6] = target: T1, HER3; assay: NRG1-induced phosphorylation of HER3 in pancreatic cancer cell lines; type: cell-based; set-up: endogenous in cells; host or cells: N87, BT474, ZR75-30, Panc 2.03, A549 and a panel of human cancer cell lines
HER3 [7] = target: T1, HER3; assay: Functional screen for inhibition of ligand-induced HER3 activation; type: cell-based; set-up: endogenous in cells; host or cells: N87, BT474, ZR75-30, Panc 2.03, A549 and a panel of human cancer cell lines; conditions: human cancer cell lines
Source text: Another HER3 antibody was generated by immunizing mice with human HER3 expressing SP 2/0 cells. […] Thus, the 3D4 antibody is a ligand-dependent antibody.

[8] = target: T3, HER3-transfected SP 2/0 cells (Homo sapiens, UniProt P21860); assay: Flow cytometry binding specificity on transfected SP 2/0 cells; conditions: EGFR, HER2 or HER3 transfected SP2/0 cells, 1 μg/ml purified antibody
T3 construct: expressed in transfected cells; host or cells: SP 2/0 cells
Protocol: (§1) The average OD values of triplicates are presented. The values for egFR are superimposed on the values for HER2. […] EGFR, HER2 or HER3-transfected SP 2/0 cells were stained with 1 μg/ml of purified antibody, followed by PE-goat anti-mouse IgG.
(§2) An ELISA plate was coated with 1 μg/ml of recombinant soluble EGFR, HER2, or the extracellular domain of HER3.

recombinant soluble HER3 [9] = target: T4, recombinant soluble HER3 (Homo sapiens, UniProt P21860); assay: ELISA for blocking of NRG1 binding to HER3; conditions: 100 ng/ml biotin-conjugated NRG1, increasing antibody concentrations
T4 construct: coated with 1 μg/ml of recombinant soluble HER3
Source text: (§3) The binding of NRG1 to HER3 (vertical axis) was detected by HRP-streptavidin. […] NRG1 binding was detected by PE-streptavidin. The mean fluorescent intensities (MFI) of NRG1 bound are presented.
(§4) The binding of NRG1 to HER3 was detected by HRP-streptavidin. […] Thus, the 1A5 antibody is herein referred to as a ligand-independent antibody. […] Thus, the 3D4 antibody is herein referred to as a ligand-dependent antibody. […] NRG1 binding was detected by PE-streptavidin.

[10] = tested on: A549 human lung cancer xenograft; assay: A549 human lung cancer xenograft model; type: in vivo
recombinant soluble HER3 [11] = target: T4, recombinant soluble HER3; assay: Sandwich ELISA for epitopes (1A5 capture, HRP-3D4 detection); type: binding; conditions: plate coated with 2 μg/ml 1A5, 200 ng/ml HRP-conjugated 3D4
Protocol: An ELISA plate was coated with 2 μg/ml of purified 1A5 and then incubated with indicated concentrations of recombinant soluble HER3 in the presence of 200 ng/ml HRP-conjugated 3D4. The binding of 3D4 to HER3 was detected by chemiluminescence substrate. The average counts per second of triplicates are presented.
An ELISA plate was coated with 2 μg/ml of purified 1A5 and then incubated with increasing concentrations of HER3 in the presence of 200 ng/ml HRP-conjugated 3D4. The binding of 3D4 antibody to HER3 was detected by chemiluminescence.

EGFR = EGFR (Homo sapiens, UniProt P00533); assay: EGFR tyrosine phosphorylation ELISA, antibodies with or without tyrosine kinase inhibitor; conditions: 24 hours
[12] = target: T3, HER3-transfected SP 2/0 cells; assay: Flow cytometry for blocking of NRG1 binding to HER3; conditions: 100 ng/ml biotin-conjugated NRG1, increasing antibody concentrations
Source text: as §3, §4

HER3 [13] = target: T1, HER3; assay: HER3 tyrosine phosphorylation ELISA, antibodies with or without tyrosine kinase inhibitor; type: cell-based; set-up: endogenous in cells; host or cells: N87; tyrosine phosphorylation of HER3: dose or concentration left out as unconfirmed; conditions: 24 hours; for tyrosine phosphorylation levels of HER3: 20 μg/ml antibody
[14] = target: T5, HER3 (extracellular domain) (Homo sapiens, UniProt P21860); assay: ELISA binding specificity on recombinant soluble EGFR, HER2, HER3; conditions: plate coated with 1 μg/ml recombinant soluble EGFR, HER2 or HER3 extracellular domain
T5 construct: recombinant soluble EGFR, HER2, or the extracellular domain of HER3
Protocol: as §1, §2

T1 sequence (P21860 20-1342): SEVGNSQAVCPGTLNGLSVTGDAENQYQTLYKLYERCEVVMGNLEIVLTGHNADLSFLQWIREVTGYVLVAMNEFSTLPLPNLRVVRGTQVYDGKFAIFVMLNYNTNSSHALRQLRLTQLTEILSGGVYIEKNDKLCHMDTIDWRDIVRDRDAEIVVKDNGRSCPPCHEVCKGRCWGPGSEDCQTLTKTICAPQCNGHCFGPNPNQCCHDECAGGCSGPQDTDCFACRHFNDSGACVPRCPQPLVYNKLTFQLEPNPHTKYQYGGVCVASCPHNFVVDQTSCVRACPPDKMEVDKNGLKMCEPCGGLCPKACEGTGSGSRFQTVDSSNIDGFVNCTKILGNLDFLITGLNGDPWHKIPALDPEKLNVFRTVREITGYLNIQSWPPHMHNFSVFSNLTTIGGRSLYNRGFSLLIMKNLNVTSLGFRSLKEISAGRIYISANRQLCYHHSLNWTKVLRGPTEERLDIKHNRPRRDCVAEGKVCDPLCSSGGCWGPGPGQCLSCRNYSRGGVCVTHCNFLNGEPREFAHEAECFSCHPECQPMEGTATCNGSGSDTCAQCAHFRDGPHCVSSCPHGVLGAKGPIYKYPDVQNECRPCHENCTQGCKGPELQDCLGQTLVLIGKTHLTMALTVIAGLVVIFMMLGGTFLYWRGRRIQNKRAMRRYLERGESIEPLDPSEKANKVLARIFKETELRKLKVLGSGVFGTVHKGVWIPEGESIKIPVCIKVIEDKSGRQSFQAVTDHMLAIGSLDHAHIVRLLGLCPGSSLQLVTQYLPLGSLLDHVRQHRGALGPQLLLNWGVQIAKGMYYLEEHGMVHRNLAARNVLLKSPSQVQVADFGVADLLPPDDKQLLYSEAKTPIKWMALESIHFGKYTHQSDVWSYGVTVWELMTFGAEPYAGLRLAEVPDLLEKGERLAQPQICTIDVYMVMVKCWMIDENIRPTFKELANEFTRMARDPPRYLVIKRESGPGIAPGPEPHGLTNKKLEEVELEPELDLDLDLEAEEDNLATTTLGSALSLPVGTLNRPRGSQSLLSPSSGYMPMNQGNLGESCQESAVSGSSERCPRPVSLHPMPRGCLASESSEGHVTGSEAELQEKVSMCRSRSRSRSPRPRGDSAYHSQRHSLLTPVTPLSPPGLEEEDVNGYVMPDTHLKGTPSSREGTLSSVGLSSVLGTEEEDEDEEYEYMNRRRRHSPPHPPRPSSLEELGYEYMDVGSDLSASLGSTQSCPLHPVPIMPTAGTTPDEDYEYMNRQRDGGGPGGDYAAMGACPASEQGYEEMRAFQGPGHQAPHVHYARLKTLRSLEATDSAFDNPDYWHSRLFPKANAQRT
T3 sequence (P21860 20-1342): as above
T4 sequence (P21860 20-643 limits assumed): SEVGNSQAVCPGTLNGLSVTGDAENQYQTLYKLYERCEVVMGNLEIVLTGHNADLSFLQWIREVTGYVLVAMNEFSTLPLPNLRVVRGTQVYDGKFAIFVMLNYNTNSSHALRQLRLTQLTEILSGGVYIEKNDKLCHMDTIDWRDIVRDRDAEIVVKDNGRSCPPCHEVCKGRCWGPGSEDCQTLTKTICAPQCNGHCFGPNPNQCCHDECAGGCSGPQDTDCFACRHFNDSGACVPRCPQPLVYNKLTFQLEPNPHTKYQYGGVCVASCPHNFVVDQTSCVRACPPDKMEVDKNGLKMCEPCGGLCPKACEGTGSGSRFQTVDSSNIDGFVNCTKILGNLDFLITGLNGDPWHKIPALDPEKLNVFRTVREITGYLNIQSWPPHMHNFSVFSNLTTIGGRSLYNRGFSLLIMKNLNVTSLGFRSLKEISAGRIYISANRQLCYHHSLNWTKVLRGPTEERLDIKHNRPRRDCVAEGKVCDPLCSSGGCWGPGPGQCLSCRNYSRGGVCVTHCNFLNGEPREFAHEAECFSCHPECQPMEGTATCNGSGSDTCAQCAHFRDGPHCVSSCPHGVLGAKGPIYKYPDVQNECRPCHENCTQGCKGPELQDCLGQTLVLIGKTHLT
T5 sequence (P21860 20-643 limits assumed): as above

Molecule: C#Cc1cccc(Nc2ncnc3cc(OCCOC)c(OCCOC)cc23)c1 [erlotinib, reference compound]
autophosphorylation of HER3 (HER3 [1]): but not erlotinib and lapatinib inhibited autophosphorylation of HER3

tyrosine phosphorylation level of HER2 (HER2 [5]; 100 nM lapatinib with the antibodies): reduced | tyrosine phosphorylation levels of HER2 (HER2 [5]; 100 nM lapatinib with the antibodies alone or in combination): reduced tyrosine phosphorylation levels
Molecule: CS(=O)(=O)CCNCc1ccc(-c2ccc3ncnc(Nc4ccc(OCc5cccc(F)c5)c(Cl)c4)c3c2)o1 [lapatinib, reference compound]
autophosphorylation of HER2 (HER2 [2]): partially inhibited autophosphorylation of HER2 | NRG1-induced phosphorylation of HER2 (HER2 [3]): inhibited NRG1-induced phosphorylation of HER2; also recorded: inhibited NRG-1-induced phosphorylation of HER2 | autophosphorylation of HER3 (HER3 [1]): but not erlotinib and lapatinib inhibited autophosphorylation of HER3 | tumor volume [4]: reduced tumor volume more than the administration of the combination of 1A5 and 3D4 antibodies | NRG1-induced phosphorylation of HER3 (HER3 [6]): only partially inhibited NRG1-induced phosphorylation of HER3; also recorded: partially reduced NRG-1-induced phosphorylation

binding specificity by flow cytometry [8]: specifically bind HER3 | tyrosine phosphorylation levels of HER3, effect of adding Erlotinib (HER3 [13]; A549 cells, 20 μg/ml antibody with 100 nM Erlotinib): enhanced | tyrosine phosphorylation of HER3, effect of adding lapatinib (HER3 [13]; N87 cells, with 100 nM lapatinib): enhanced | tyrosine phosphorylation levels of HER3, effect of adding lapatinib (HER3 [13]; ZR75-30 cells, 20 μg/ml antibody with 100 nM lapatinib): enhanced
B1: 3D4: ligand-dependent HER3 antibody; light chain variable region SEQ ID NO:9, heavy chain variable region SEQ ID NO:10 (antibody, V domains shown)
VH: MGWSRIFLFLLSIIAGVHCQVQLQQSGPELVKPGASVRISCKASGYTFTNYFLHWMKQRPGQGLEWIGWIYPGNVNTKYSEKFKGKATLTADKSSSTAYMQLSSLTSEDSAVYFCARSTYYSMDYWGQGTSVTVSS
VL: METDTLLLWVLLLWVPGSTGDIVLTQSPASLAVSLGQRATISCRASESVDSYGNSFMNWYQQKPGQPPKVLIYRASNLESGIPARFSGSGSRTDFTLTITPVEADDVATYYCQQSYEDPPTFGGGTKLEIK
inhibition of ligand-induced HER3 activation (HER3 [7]): ability to inhibit ligand-induced HER3 activation in human cancer cells lines | blocking of NRG1 binding to HER3 (ELISA) (recombinant soluble HER3 [9]): inhibited binding of NRG1 to HER3; also recorded: blocks ligand binding to HER3 | tumor volume ([10]; antibodies without Erbitux): reduced tumor volume | tumor volume ([10]; in combination with Erbitux): reduced tumor volume more than administration of Erbitux alone | epitopes of HER3 bound (recombinant soluble HER3 [11]): bind different epitopes of HER3; also recorded: recognize different epitopes on HER3 | NRG1-induced phosphorylation of HER2 (HER2 [3]): inhibited NRG1-induced phosphorylation of HER2; also recorded: inhibited NRG-1-induced phosphorylation of HER2 | tyrosine phosphorylation levels of EGFR (EGFR; A549 cells, 20 μg/ml antibody, without Erlotinib): did not affect tyrosine phosphorylation levels of EGFR | tyrosine phosphorylation level of EGFR (EGFR; N87 cells, 20 mg/ml antibody, without lapatinib): did not affect the level of tyrosine phosphorylation for EGFR or HER2 | blocking of NRG1 binding to HER3 (flow cytometry) [12]: blocked NRG1 binding to HER3; also recorded: blocks ligand binding to HER2 | tyrosine phosphorylation levels of HER3 (HER3 [13]; A549 cells, without Erlotinib): reduced the tyrosine-phosphorylation levels of HER3 | tyrosine phosphorylation of HER3 (HER3 [13]; N87 cells, without lapatinib): reduced the tyrosine phosphorylation of HER3 | tyrosine phosphorylation levels of HER3 (HER3 [13]; ZR75-30 cells, without lapatinib): reduced the tyrosine phosphorylation levels of HER3 | tyrosine phosphorylation level of HER2 (HER2 [5]; without lapatinib): did not affect the level of tyrosine phosphorylation for EGFR or HER2 | tyrosine phosphorylation levels of HER2 (HER2 [5]; 20 μg/ml antibody, without lapatinib): did not affect tyrosine phosphorylation levels of HER2 | binding specificity by ELISA [14]: specifically bind HER3; also recorded: specific binding | NRG1-induced phosphorylation of HER3 (HER3 [6]): inhibited NRG1-induced phosphorylation of HER3; also recorded: inhibited NRG-1 induced phosphorylation of HER3

— patent US9637543B2, “HER3 antibodies and uses thereof” (THE UAB RESEARCH FOUNDATION, priority 2011, dated 2017)
